B1: HDV Ribozyme (parent)
chain: GGCCGGCAUGGUCCCAGCCUCCUCGCUGGCGCCGGCUGGGCAACAUUCCGAGGGGACCGUCCCCUCGGUAAUGGCGAAUGGGACCCA

Variants of: B1
Assay: self-cleavage, relative activity (ratio to wild type); higher = more cleavage; co-transcriptional

Variant | self-cleavage
C64U C86G | 0.972
C64U C86U | 0.772
G67C C84A | 0.682
C64G U79C | 0.623
C66U G76U | 0.936
C66U G76A | 0.86
C66U G76C | 0.965
C64G U72C | 0.364
C66A A83G | 0.641
C66A A83C | 0.527
C66A A83U | 0.225
C66U A71C | 0.54
U65A G82A | 0.281
U65A G82C | 0.614
C64U C75A | 0.242
C64U C75U | 0.252
G67A G73A | 0.492
C66A G81C | 0.163
C66A G81A | 0.354
C64U G74A | 0.535
U65C A71U | 0.812
C64G C86U | 0.845
C64G C86G | 0.859
C66G G76U | 0.88

Variant | self-cleavage
C66G G76C | 0.73
U65G G73U | 0.47
U65G G73C | 0.289
C66G C85G | 0.969
U65C A70U | 0.789
U65C A70C | 1.17
U65C A70G | 0.705
U65A G73C | 0.415
U65A G73A | 0.342
C64G G67C | 0.332
C64G G67U | 0.365
U65C G73C | 0.283
U65C U79A | 0.644
U65C U79G | 0.396
C64G A71G | 1.11
C64U A83C | 0.332
C64U A83U | 0.361
U65A G74C | 0.225
U65A G74A | 0.489
C66U U72G | 0.582
C66U G73U | 0.284
C66U G73C | 0.528
C66U G73A | 0.66
C64U G82U | 0.486

Variant | self-cleavage
C64U G82C | 0.208
C64U G82A | 0.487
C64G A83G | 0.708
C64G A83U | 0.508
C64G G74U | 0.635
C64G G74C | 0.244
G67A A70C | 0.475
G67A A70U | 0.776
U65C G82A | 0.554
U65C G82U | 0.567
U65C G76C | 1.09
U65C G76A | 0.918
U65C G76U | 1.14
C64U | 0.995
C66A C85A | 0.939
C64U A70G | 0.701
C64U A70C | 0.956
U65G A71C | 0.755
U65G A71G | 0.917
C66A G73U | 0.171
C66A G73C | 0.277
C66A G73A | 0.63
C66U C85A | 1
U65G G81U | 0.248

Variant | self-cleavage
U65G G81C | 0.439
C64U G81U | 0.313
C64U G81C | 0.315
C64U G81A | 0.318
U65A U79A | 0.727
C66G A70U | 1.08
C66G A70G | 0.831
C66G A70C | 0.758
U65A G76A | 0.976
C66G A83C | 0.178
C64U U69G | 1.07
C64U U69C | 1.17
G67A G81C | 0.117
G67A G81U | 0.101
U65A A71C | 0.767
U65A A71U | 0.76
U65A A71G | 0.831
C66A G80A | 0.54
C66A G80U | 0.304
C64G A70G | 0.712
C64G A70C | 0.536
G67C A87C | 0.84
U65A G81A | 0.495
U65G G82C | 0.133

Variant | self-cleavage
U65G G68A | 0.772
C66U G74C | 0.363
U65G G80A | 0.288
U65G G74C | 0.309
U65G G74U | 0.424
C66U G68C | 0.753
C66U G68U | 0.935
C66U G68A | 0.92
U65A C86A | 1.07
U65A C86U | 0.937
G67C C86G | 0.933
U65G G76C | 1.15
C66A G82A | 0.356
G67A G76C | 0.926
G67A G76U | 0.965
C64U A71C | 0.719
C66U G67U | 0.972
C66G A78U | 0.48
C66G A78C | 0.148
C66G A78G | 0.875
C66A G74A | 0.519
C66A G74C | 0.293
C66A G74U | 0.739
U65C U69A | 0.989

Variant | self-cleavage
U65C U69G | 1.03
C66G G73U | 0.389
C66G G73A | 0.434
C66G G74A | 0.471
C66G G74U | 0.396
C66U C86A | 0.905
U65A A70G | 1.05
U65A U72A | 0.636
U65A U72G | 0.399
U65A A83G | 0.859
U65A A83C | 0.504
U65G C84G | 0.569
U65G C84U | 0.704
C64U U65A | 0.984
C64U U65G | 0.784
C64U U65C | 0.914
G67A U72G | 0.383
C64G G68A | 0.338
C64G G68U | 0.136
C64G A77G | 0.434
C64G A77U | 0.506
G67C A83U | 0.469
U65G A77C | 0.356
U65C A87G | 0.94

Variant | self-cleavage
U65C A87U | 1.08
G67C C85G | 0.96
G67C C85A | 0.7
G67A G80C | 0.172
G67A G80A | 0.41
U65A A77G | 0.643
U65A A77C | 0.277
C66G G68A | 0.695
U65C C85A | 0.991
U65C G80U | 0.106
C66G G67U | 0.831
C66G G67C | 1.01
C64U C85A | 1.25
C66G C75G | 0.383
C66G C75A | 0.166
G67A G68U | 0.79
G67A G68A | 0.946
U65G U79A | 0.306
U65G U79G | 1.2
U65G U69A | 1.23
U65G U69G | 0.942
G67C G73A | 0.327
G67C G73C | 0.212

Reference: the RNAGym collection of RNA variant scans (doi:10.7554/elife.80360)
